Legend:
[1] = Maximum tolerated dose (MTD) dose escalation study; type: in vivo, athymic nude mice; conditions: for MTD: female, athymic nude, mouse, in vivo, iv, single i.v. injection, CPT equivalent, healthy athymic nude mice; for Maximum % BW loss: n=3
Procedure: Maximum tolerated dose (MTD) studies. MTD of SAPD 1 has been previously determined in our lab (Table 1). MTDs of other SAPDs were determined by dose escalation studies in healthy female athymic nude mice (Charles River, 12-13 weeks old). A single intravenous (i.v.) injection of SAPD was dosed at day 1 and the body weights of each mouse (n=3) were recorded every day for six days and every the other day until two weeks. The dosing volume was determined based upon a ratio of 200 μL for a 20 g mouse. Doses of SAPDs used in the studied were 108, 72, 54, 45, 36 and 18 mg/kg (CPT equivalent).

HT-29 cells = conditions: mouse, in vivo
Source text: Antitumor efficacy study of SAPDs at the same dose on a HT-29 tumor model. […] When the averaged tumor size reached 75-95 mm^3, mice were randomly divided into six groups. […] The tumor volumes and body weights were monitored and recorded every two or three days. The tumor volume was estimated by measuring the length and width with calipers and using the equation “tumor volume=(length×width^2)/2”. Mice were euthanized once the tumor volume reached 1000 mm^3.

[2] = Circulation studies of SAPDs in rats; type: in vivo, Sprague Dawley (SD) rats; conditions: 10 mg/kg i.v.
Procedure: Circulation studies of SAPDs in rats. Female Sprague Dawley (SD) Rats (200-250 g) were randomly grouped into four groups with three rats in each group. SAPDs were all intravenously (i.v.) dosed at 10 mg/kg (CPT equivalent). The dosing volumes of SAPDs were estimated by a ratio of 1 mL for a 200 g rat. The blood samples were collected at 5 min, 15 min, 30 min, 1 h, 2 h, 4 h, 8 h, and 12 h, which were immediately centrifuged to take plasma for further analysis and stored at −80° C. The plasma proteins were precipitated using similar protocols as mentioned above in drug release section and the determination of SAPDs and free CPT in the plasma by UPLC also used the same conditions.
Estimation of SAPD concentration in plasma upon injection. To calculation the concentration after dilution, we simply set the following parameters: body weight of mice (20 g), dosing volume of mice (200 μL), blood volume of mice (1.8 mL), body weight of rat (200 g), dosing volume of mice (1 mL), blood volume of mice (18 mL) and the dosage for both mice and rats (10 mg/kg).

[3] = single i.v. dose 18 mg/kg (CPT equivalent)
[4] = single i.v. dose 36 mg/kg (CPT equivalent)
[5] = single i.v. dose 45 mg/kg (CPT equivalent)
[6] = single i.v. dose 54 mg/kg (CPT equivalent)
[7] = single i.v. dose 72 mg/kg (CPT equivalent)

| Structure (SMILES) | MTD [1] | Survival/Total ([1]; single i.v. dose 18 mg/kg) | day of maximum BW loss ([1]; single i.v. dose 18 mg/kg) | Maximum % BW loss [1, 3] | Survival/Total ([1]; single i.v. dose 36 mg/kg) | day of maximum BW loss ([1]; single i.v. dose 36 mg/kg) | Maximum % BW loss [1, 4] | Survival/Total ([1]; single i.v. dose 45 mg/kg) | Maximum % BW loss [1, 5] | Survival/Total ([1]; single i.v. dose 54 mg/kg) | day of maximum BW loss ([1]; single i.v. dose 54 mg/kg) | Maximum % BW loss [1, 6] | Survival/Total ([1]; single i.v. dose 72 mg/kg) | Maximum % BW loss [1, 7] | Survival/Total ([1]; single i.v. dose 108 mg/kg) | mean tumor volume (HT-29 cells) | median survival (HT-29 cells) | total CPT concentration in plasma ([2]; 1 h) | total CPT concentration in plasma ([2]; 2 h) | further results |
| --- | --- | --- | --- | --- | --- | --- | --- | --- | --- | --- | --- | --- | --- | --- | --- | --- | --- | --- | --- | --- |
| CC[C@]1(OC(=O)OCCSSC[C@@H](NC(C)=O)C(=O)N[C@@H](CCCCNC(=O)[C@@H](CSSCCOC(=O)O[C@]2(CC)C(=O)OCc3c2cc2n(c3=O)Cc3cc4ccccc4nc3-2)NC(C)=O)C(=O)N[C@@H](CCCCNC(=O)CCOCCOCCOCCOCCOC)C(=O)N[C@@H](CCCCNC(=O)CCOCCOCCOCCOCCOC)C(=O)N[C@@H](CCCCNC(=O)CCOCCOCCOCCOCCOC)C(=O)N[C@@H](CCCCNC(=O)CCOCCOCCOCCOCCOC)C(=O)N[C@@H](CCCCNC(=O)CCOCCOCCOCCOCCOC)C(=O)N[C@@H](CCCCNC(=O)CCOCCOCCOCCOCCOC)C(N)=O)C(=O)OCc2c1cc1n(c2=O)Cc2cc3ccccc3nc2-1 [SAPD 3] | 72 mg/kg | 3/3 | 4 days | 5.5% | 3/3 | 4 days | 1.4% | 3/3 | 2.5% | 3/3 | 1 days | 1.6% | 3/3 | 0% | 2/3 | 304 mm^3 | 42 days | 2.8 µM | 1.3 µM | day of maximum BW loss ([1]; single i.v. dose 45 mg/kg): 4 days |
| CC[C@]1(OC(=O)OCCSSC[C@@H](NC(C)=O)C(=O)N[C@@H](CCCCNC(=O)[C@@H](CSSCCOC(=O)O[C@]2(CC)C(=O)OCc3c2cc2n(c3=O)Cc3cc4ccccc4nc3-2)NC(C)=O)C(=O)N[C@@H](CCCCNC(=O)CCOCCOCCOCCOCCOC)C(=O)N[C@@H](CCCCNC(=O)CCOCCOCCOCCOCCOC)C(=O)N[C@@H](CCCCNC(=O)CCOCCOCCOCCOCCOC)C(=O)N[C@@H](CCCCNC(=O)CCOCCOCCOCCOCCOC)C(=O)N[C@@H](CCCCNC(=O)CCOCCOCCOCCOCCOC)C(=O)N[C@@H](CCCCNC(=O)CCOCCOCCOCCOCCOC)C(=O)N[C@@H](CCCCNC(=O)CCOCCOCCOCCOCCOC)C(=O)N[C@@H](CCCCNC(=O)CCOCCOCCOCCOCCOC)C(N)=O)C(=O)OCc2c1cc1n(c2=O)Cc2cc3ccccc3nc2-1 [SAPD 4] | 72 mg/kg | 3/3 | 5 days | 3.1% | 3/3 | 2 days | 7.2% | 3/3 | 0% | 3/3 | 3 days | 3.9% | 2/3 | 1.2% | 1/3 | 286 mm^3 | 47 days | 4.7 µM | 1.0 µM | day of maximum BW loss ([1]; single i.v. dose 72 mg/kg): 1 days |

From patent US20220211858A1, “TUBULAR SUPRAMOLECULAR POLYMERS” (priority 2019, published 2022)
